Paper PMC2770428 (2010)
Several values for one entry are separate records, joined by “and”; a condition that tells them apart may be missing. Equal values may be shown once.

T1: C4b (on zymosan, average) C4b (Homo sapiens, UniProt P0C0L5)
T1 chain 1: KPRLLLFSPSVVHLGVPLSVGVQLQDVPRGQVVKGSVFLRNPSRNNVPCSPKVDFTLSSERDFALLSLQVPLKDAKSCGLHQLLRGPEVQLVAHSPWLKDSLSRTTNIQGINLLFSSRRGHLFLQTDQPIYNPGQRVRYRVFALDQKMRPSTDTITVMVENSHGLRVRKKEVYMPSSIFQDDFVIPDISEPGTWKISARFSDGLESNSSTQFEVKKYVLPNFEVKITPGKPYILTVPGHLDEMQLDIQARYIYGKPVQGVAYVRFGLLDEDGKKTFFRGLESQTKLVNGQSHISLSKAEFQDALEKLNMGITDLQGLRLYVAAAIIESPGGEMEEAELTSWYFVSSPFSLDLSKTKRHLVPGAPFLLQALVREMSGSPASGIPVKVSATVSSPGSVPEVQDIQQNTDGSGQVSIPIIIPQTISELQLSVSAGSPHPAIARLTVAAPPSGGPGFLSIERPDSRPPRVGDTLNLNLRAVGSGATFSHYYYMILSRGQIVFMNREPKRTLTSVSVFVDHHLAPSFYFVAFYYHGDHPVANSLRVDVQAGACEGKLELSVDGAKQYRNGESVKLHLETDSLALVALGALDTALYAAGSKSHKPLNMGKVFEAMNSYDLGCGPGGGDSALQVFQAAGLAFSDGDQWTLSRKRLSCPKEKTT
T1 chain 2: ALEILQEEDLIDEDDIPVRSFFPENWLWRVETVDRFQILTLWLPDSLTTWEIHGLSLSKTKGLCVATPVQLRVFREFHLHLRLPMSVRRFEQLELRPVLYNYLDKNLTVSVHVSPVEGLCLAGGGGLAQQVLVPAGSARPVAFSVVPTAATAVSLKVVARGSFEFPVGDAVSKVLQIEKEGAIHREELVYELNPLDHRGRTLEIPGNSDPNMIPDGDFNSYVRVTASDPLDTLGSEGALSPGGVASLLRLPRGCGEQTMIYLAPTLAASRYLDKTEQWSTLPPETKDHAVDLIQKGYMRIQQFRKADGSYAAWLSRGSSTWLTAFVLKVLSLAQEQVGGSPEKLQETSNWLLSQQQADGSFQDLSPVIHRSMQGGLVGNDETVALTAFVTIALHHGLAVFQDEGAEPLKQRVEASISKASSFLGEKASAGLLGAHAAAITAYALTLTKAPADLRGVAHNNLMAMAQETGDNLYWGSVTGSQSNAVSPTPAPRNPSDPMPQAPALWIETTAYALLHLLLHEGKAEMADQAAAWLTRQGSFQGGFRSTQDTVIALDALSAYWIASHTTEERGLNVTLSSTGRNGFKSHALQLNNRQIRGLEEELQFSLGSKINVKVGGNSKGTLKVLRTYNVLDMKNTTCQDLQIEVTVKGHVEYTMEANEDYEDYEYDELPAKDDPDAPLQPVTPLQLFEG
T1 chain 3: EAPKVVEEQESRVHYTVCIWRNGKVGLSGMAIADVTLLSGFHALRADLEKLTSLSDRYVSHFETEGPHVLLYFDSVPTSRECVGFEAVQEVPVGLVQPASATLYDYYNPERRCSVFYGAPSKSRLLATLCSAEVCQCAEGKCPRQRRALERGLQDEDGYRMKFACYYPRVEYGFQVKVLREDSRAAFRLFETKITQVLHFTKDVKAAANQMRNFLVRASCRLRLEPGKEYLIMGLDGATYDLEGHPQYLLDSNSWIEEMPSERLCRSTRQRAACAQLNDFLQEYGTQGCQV


Experiments:
[1] = target: C4b (soluble) (Homo sapiens) (UniProt P0C0L4); settings: cited from earlier work
[2] = target: C4b (surface-bound) (Homo sapiens) (UniProt P0C0L4); settings: cited from earlier work
[3] = target: C3bC4b complex (on zymosan, average) C3b+C4b (Homo sapiens, UniProt P01024); experiment: 125I-C4BP equilibrium binding
Chain of C3bC4b complex (on zymosan, average) C3b+C4b (P01024 23-1663, one chain of several): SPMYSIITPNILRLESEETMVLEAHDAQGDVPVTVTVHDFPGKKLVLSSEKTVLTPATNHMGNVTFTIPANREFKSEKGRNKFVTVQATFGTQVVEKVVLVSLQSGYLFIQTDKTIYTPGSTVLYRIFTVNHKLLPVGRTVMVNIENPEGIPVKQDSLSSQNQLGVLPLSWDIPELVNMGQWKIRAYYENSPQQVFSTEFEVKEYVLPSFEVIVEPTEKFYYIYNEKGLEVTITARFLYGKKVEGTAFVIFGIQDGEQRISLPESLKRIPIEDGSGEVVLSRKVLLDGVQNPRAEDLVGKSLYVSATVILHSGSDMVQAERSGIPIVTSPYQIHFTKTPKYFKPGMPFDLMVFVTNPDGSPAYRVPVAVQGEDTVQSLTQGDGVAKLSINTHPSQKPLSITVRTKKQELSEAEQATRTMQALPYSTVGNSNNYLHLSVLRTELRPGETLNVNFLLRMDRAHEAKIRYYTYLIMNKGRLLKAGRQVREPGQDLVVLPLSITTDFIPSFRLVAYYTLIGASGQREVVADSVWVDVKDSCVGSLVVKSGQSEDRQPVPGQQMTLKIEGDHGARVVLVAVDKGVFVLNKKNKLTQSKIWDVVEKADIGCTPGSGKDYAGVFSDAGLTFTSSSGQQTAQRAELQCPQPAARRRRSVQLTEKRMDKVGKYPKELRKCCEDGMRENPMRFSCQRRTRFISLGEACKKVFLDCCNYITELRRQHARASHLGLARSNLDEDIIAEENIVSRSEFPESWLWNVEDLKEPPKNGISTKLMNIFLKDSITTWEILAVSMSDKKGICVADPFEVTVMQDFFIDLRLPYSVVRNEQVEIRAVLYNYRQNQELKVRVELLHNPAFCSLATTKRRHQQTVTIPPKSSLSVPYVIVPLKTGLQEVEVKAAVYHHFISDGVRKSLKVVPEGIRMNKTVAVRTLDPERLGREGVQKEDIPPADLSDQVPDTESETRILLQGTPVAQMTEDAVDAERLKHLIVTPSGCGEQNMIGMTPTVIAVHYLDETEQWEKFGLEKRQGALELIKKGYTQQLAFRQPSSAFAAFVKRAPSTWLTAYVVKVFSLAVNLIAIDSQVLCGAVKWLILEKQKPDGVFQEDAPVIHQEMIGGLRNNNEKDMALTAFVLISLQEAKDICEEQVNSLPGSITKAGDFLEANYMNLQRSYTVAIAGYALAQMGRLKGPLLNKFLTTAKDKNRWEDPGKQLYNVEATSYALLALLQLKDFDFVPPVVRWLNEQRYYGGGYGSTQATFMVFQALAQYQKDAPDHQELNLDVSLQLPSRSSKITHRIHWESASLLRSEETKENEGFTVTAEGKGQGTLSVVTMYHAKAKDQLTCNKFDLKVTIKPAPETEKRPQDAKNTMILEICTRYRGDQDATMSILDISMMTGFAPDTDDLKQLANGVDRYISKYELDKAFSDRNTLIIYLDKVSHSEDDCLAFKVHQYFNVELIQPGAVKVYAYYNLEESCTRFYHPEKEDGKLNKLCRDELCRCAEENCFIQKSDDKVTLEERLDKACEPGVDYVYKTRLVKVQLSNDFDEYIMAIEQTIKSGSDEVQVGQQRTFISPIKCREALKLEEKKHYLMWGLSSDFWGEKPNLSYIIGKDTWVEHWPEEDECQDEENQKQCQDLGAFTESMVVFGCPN

[4] = target: C3bC4b complex (on zymosan, 54,000 C4b/Zym) C3b+C4b (Homo sapiens, UniProt P01024); experiment: 125I-C4BP equilibrium binding
Chain of C3bC4b complex (on zymosan, 54,000 C4b/Zym) C3b+C4b (P01024 23-1663, one chain of several): as above

[5] = target: T1, C4b (on zymosan, average) C4b; experiment: 125I-C4BP equilibrium binding
[6] = target: C3bC4b complex (on EMan, average) C3b+C4b (Homo sapiens, UniProt P01024); experiment: 125I-C4BP equilibrium binding
Chain of C3bC4b complex (on EMan, average) C3b+C4b (P01024 23-1663, one chain of several): as above

Kd [3] [nM]	Kd [4] [nM]	Kd [5] [nM]	Kd [6] [nM]	Molecule	Kd [1] [nM]	Kd [2]
–	–	–	–	C4BP (from UniProt P04003)	80	5 nM and 2.2 nM
0.9	0.62	0.95	2.1	C4b-binding protein (C4BP) (protein) chain 1: NCGPPPTLSFAAPMDITLTETRFKTGTTLKYTCLPGYVRSHSTQTLTCNSDGEWVYNTFCIYKRCRHPGELRNGQVEIKTDLSFGSQIEFSCSEGFFLIGSTTSRCEVQDRGVGWSHPLPQCEIVKCKPPPDIRNGRHSGEENFYAYGFSVTYSCDPRFSLLGHASISCTVENETIGVWRPSPPTCEKITCRKPDVSHGEMVSGFGPIYNYKDTIVFKCQKGFVLRGSSVIHCDADSKWNPSPPACEPNSCINLPDIPHASWETYPRPTKEDVYVVGTVLRYRCHPGYKPTTDEPTTVICQKNLRWTPYQGCEALCCPEPKLNNGEITQHRKSRPANHCVYFYGDEISFSCHETSRFSAICQGDGTWSPRTPSCGDICNFPPKIAHGHYKQSSSYSFFKEEIIYECDKGYILVGQAKLSCSYSHWSAPAPQCKALCRKPELVNGRLSVDKDQYVEPENVTIQCDSGYGVVGPQSITCSGNRTWYPEVPKCEWETPEGCEQVLTGKRLMQCLPNPEDVKMALEVYKLSLEIEQLELQRDSARQSTLDKEL chain 2: SDAEHCPELPPVDNSIFVAKEVEGQILGTYVCIKGYHLVGKKTLFCNASKEWDNTTTECRLGHCPDPVLVNGEFSSSGPVNVSDKITFMCNDHYILKGSNRSQCLEDHTWAPPFPICKSRDCDPPGNPVHGYFEGNNFTLGSTISYYCEDRYYLVGVQEQQCVDGEWSSALPVCKLIQEAPKPECEKALLAFQESKNLCEAMENFMQQLKESGMTMEELKYSLELKKAELKAKLL	–	–
